Patent US20210332146A1 (ACADEMIA SINICA, published 2021)

T1: CD20 (human, UniProt P11836 1-297)
T1 construct: whole, on cells; Target on B-lymphoma cells in flow cytometry; also called CD20 antigen; B-lymphocyte-restricted differentiation antigen
T1 sequence (looked up): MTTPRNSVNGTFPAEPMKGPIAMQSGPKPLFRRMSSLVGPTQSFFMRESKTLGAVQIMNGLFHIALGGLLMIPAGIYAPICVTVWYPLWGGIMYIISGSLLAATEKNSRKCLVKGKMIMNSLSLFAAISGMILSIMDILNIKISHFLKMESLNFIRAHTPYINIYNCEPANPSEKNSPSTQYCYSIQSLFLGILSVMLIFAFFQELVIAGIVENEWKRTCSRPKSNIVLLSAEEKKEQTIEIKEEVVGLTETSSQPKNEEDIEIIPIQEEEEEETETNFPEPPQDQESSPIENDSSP

B1: Rituximab (antibody, human IgG1, kappa)
heavy: not shown
light: QIVLSQSPAILSASPGEKVTMTCRASSSVSYIHWFQQKPGSSPKPWIYATSNLASGVPVRFSGSGSGTSYSLTISRVEAEDAATYYCQQWTSNPPTFGGGTKLEIKRTVAAPSVFIFPPSDEQLKSGTASVVCLLNNFYPREAKVQWKVDNALQSGNSQESVTEQDSKDSTYSLSSTLTLSKADYEKHKVYACEVTHQGLSSPVTKSFNRGEC
modifications: heterogeneous N-glycans at Asn-297 of the Fc (more than 50 glycoforms; greater than 90% of N-glycans are fucosylated)
notes: Chimeric anti-CD20 IgG made in CHO cells, purchased from Genentech; DrugBank DB00073; also called Rituxan; RTX
B2: anti-CD20 GAb104 (antibody, human IgG1, kappa)
heavy: not shown
light: B1 light
modifications: homogeneous N-glycan at Asn-297, no core fucose: glycan-104 (Gal2GlcNAc2Man3GlcNAc) transferred onto the GlcNAc of GAb201
notes: the text gives them the other way round
B3: anti-CD20 GAb101 (antibody, human IgG1, kappa)
heavy: not shown
light: B1 light
modifications: homogeneous N-glycan at Asn-297, no core fucose: glycan-101 (Sia2Gal2GlcNAc2Man3GlcNAc) transferred onto the GlcNAc of GAb201; 2,6 sialic acid linkage
notes: as for B2
B4: anti-CD20 GAb105 (antibody, human IgG1, kappa)
heavy: not shown
light: B1 light
modifications: homogeneous N-glycan at Asn-297, no core fucose: glycan-105 (GalGlcNAc2Man3GlcNAc) transferred onto the GlcNAc of GAb201
notes: as for B2
B5: anti-CD20 GAb102 (antibody, human IgG1, kappa)
heavy: not shown
light: B1 light
modifications: homogeneous N-glycan at Asn-297, no core fucose: glycan-102 (SiaGal2GlcNAc2Man3GlcNAc) transferred onto the GlcNAc of GAb201
notes: as for B2
B6: anti-CD20 GAb106 (antibody, human IgG1, kappa)
heavy: not shown
light: B1 light
modifications: homogeneous N-glycan at Asn-297, no core fucose: glycan-106 (GalGlcNAcMan3GlcNAc) transferred onto the GlcNAc of GAb201
notes: as for B2

Legend:
[1] = biological target: T1, CD20; assay: flow cytometry on SUDHL4 (SU-DHL4) cells, MFI against antibody concentration
[2] = biological target: T1, CD20; assay: flow cytometry on Ramos cells (CD20+ B lymphoma), MFI against antibody concentration
Description: Binding to B-lymphoma cells. The binding of the antibodies was investigated in CD20⁺ B lymphoma cell lines (Ramos and SKW6.4) and analyzed on flow cytometry. The cells in PBS containing 1% fetal bovine serum at 2×10⁵/well on microplate were incubated on ice for 1 hr with antibodies of interest at different concentrations. The cells are washed, re-suspended in the PBS buffer, and incubated with the detecting goat anti-hIgG-Fcγ-PE on ice for 30 min. The cells are washed and subjected to analysis on FACS.

[3] = biological target: T2, FcγRIIIA recombinant protein (UniProt P08637 17-208, limits assumed); assay: SPR, Biacore T200; antibody captured on anti-human Fab chip, FcγRIIIA injected (12.5-200 nM), single cycle kinetics, 1:1 model; Rituxan reference, not glycoengineered; upper end of the range
T2 construct: also called FcRIIIA
Description: (§1) FcγRIIIA was transfected into HEK-293 cell line to express recombinant protein. The secreted FcγRIIIA recombinant protein was purified and then diluted to serial concentration in HBS-EP buffer (200 nM, 100 nM, 50 nM, 25 nM, and 12.5 nM). […] A serial titration of FcγRIIIA was injected and bound at the flow rate of […]. Single cycle kinetics data was fitted into 1:1 binding model using Biacore T200 evaluation software to measure the equilibrium constant (Ka/Kd).

[4] = biological target: T2, FcγRIIIA recombinant protein; assay: SPR, Biacore T200; antibody captured on anti-human Fab chip, FcγRIIIA injected (12.5-200 nM), single cycle kinetics, 1:1 model
Description: as §1

[5] = biological target: T2, FcγRIIIA recombinant protein; assay: SPR as above; category letter explained in the note of Table 4
Description: as §1

[6] = biological target: T2, FcγRIIIA recombinant protein; assay: >
Description: as §1

T2 sequence (P08637 17-208 limits assumed): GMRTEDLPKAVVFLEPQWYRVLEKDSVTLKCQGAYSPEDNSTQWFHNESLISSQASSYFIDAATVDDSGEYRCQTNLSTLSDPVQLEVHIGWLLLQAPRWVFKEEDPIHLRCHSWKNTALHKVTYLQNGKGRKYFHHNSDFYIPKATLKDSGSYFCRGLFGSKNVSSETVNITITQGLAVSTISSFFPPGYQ

Binder	EC50 (read off the curve) [1]	Kd [4]	Fold (increase against Rituxan) [5]	further results
B1	~0.6 µg/mL	100 nM		EC50 (read off the curve) [2]: ~0.6 µg/mL; Kd [3]: ≤ 300 nM
B2			> 30 fold	
B3	~0.7 µg/mL			Fold (increase against Rituxan) [6]: 30 fold
B4			> 30 fold	
B5			> 30 fold	
B6		7 to 30 nM		
